The record followed here is publication PMC6212769, “CRISPR–Cas adaptation in Escherichia coli requires RecBCD helicase but not nuclease activity, is independent of homologous recombination, and is antagonized by 5′ ssDNA exonucleases”.

Series [1] deals with T1, Cas1-Cas2 complex (Escherichia coli, UniProt Q46896;P45956 1-305;1-94).
T1 sequence 1: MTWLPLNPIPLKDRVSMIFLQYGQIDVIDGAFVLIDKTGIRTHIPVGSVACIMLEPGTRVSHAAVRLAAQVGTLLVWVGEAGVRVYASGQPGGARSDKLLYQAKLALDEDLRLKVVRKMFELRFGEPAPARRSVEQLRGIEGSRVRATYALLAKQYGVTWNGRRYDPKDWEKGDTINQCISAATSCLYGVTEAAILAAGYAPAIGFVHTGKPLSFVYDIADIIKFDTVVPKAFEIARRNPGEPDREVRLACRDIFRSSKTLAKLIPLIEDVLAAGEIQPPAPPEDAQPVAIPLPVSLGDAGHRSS
T1 sequence 2: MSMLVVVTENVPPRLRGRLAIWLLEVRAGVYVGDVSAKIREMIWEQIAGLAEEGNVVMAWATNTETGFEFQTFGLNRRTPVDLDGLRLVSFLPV
Briefly: EMSA; no Mg2+ added; EMSA: 20 nM DNA, 0-500 nM Cas1-Cas2, 20 mM Tris-HCl pH 8.0, BSA 100 (ug/ml), 7% glycerol, 37 C 30 min; 5% acrylamide TBE gel. The settings on record: protein: recombinant, tags: Cas1 N-terminal His6, Cas2 untagged, chain copies: 4;2, label: 5'-Cy5 on strand 1, 10 bp duplex.

The target in series [2] is T1, Cas1-Cas2 complex. Briefly: EMSA; no Mg2+ added; complex formation improved over DNA-10; EMSA: 20 nM DNA, 0-500 nM Cas1-Cas2, 20 mM Tris-HCl pH 8.0, BSA 100 (ug/ml), 7% glycerol, 37 C 30 min; 5% acrylamide TBE gel. The settings on record: protein: recombinant; tags: Cas1 N-terminal His6; Cas2 untagged; chain copies: 4;2; label: 5'-Cy5 on strand 1; 14 bp duplex, 5' overhang 36 nt. For orientation: Mobility shift assays separate free from complexed probe on a gel.

The target of series [3] is T1, Cas1-Cas2 complex. The series is described as follows: EMSA; no Mg2+ added; up to 500 nM; EMSA: 20 nM DNA, 0-500 nM Cas1-Cas2, 20 mM Tris-HCl pH 8.0, BSA 100 (ug/ml), 7% glycerol, 37 C 30 min; 5% acrylamide TBE gel. The settings on record: protein: recombinant; tags: Cas1 N-terminal His6; Cas2 untagged; chain copies: 4;2; label: 5'-Cy5 on strand 1; blunt.

B1: DNA-10 (mixed)
DNA 1: AATCAAAGTGGACCCAACTCGAAATCAACCGTAACAAGCAACAAGCAGGC
DNA 2: GCCTGCTTGT
Turning to B1, the binding result in series [1] (5' overhang 40 nt) is given as “binds”.

B2: DNA-14 (mixed)
DNA 1: AATCAAAGTGGACCCAACTCGAAATCAACCGTAACAAGCAACAAGCAGGC
DNA 2: GCCTGCTTGTTGCT
Turning to B2, in series [2], the binding result was “binds”.

B3: Duplex (dsDNA)
DNA 1: AATCAAAGTGGACCCAACTCGAAATCAACCGTAACAAGCAACAAGCAGGC
DNA 2: GCCTGCTTGTTGCTTGTTACGGTTGATTTCGAGTTGGGTCCACTTTGATT
As for B3, the binding result in series [3] is on record as “no binding”.

B4: DNA-3' (3' overhang) (mixed)
DNA 1: CGGACGAACAACGAACAATGCCAACTAAAGCTCAACCCAGGTGAAACTAA
DNA 2: TGTTCGTCCG
As for B4, the binding result in series [1] (3' overhang 40 nt) is “binds”.
